Columns and labels:
[1] = biological target: T1, HA-tagged Ub-vinylmethyl ester (UniProt P0CG47 1-75); assay: 1 uM enzyme with 2 uM HAUbVME, SDS-PAGE silver stain and anti-HA immunoblot
T1 construct: also called HAUbVME; HA-UbVME

[2] = biological target: T1, HA-tagged Ub-vinylmethyl ester; assay: HAUbVME labelling, SDS-PAGE and anti-HA immunoblot

Binder	binding result [1]	binding result [2]
EBV205 (enzyme, range 1-205; not shown: N-terminal His-tag from pET28) MSNGDWGQSQRTRGTGPVRGIRTMDVNAPGGGSGGSALRILGTASCNQAHCKFGRFAGIQCVSNCVLYLVKSFLAGRPLTSRPELDEVLDEGARLDALMRQSGILKGHEMAQLTDVPSSVVLRGGGRVHIYRSAEIFGLVLFPAQIANSAVVQSLAEVLHGSYNGVAQFILYICDIYAGAIIIETDGSFYLFDPHCQKDAAPGTP	binds	
EBV205 C61A (enzyme, range 1-205; also called EBV205 active site mutant (C61A); not shown: N-terminal His-tag from pET28) MSNGDWGQSQRTRGTGPVRGIRTMDVNAPGGGSGGSALRILGTASCNQAHCKFGRFAGIQAVSNCVLYLVKSFLAGRPLTSRPELDEVLDEGARLDALMRQSGILKGHEMAQLTDVPSSVVLRGGGRVHIYRSAEIFGLVLFPAQIANSAVVQSLAEVLHGSYNGVAQFILYICDIYAGAIIIETDGSFYLFDPHCQKDAAPGTP		no binding (tested: 2 uM HAUbVME, 1 uM enzyme)

Source: US20070092942A1 (published 2007)
